One molecule from patent US20160000054A1, “HUMAN-DERIVED MUTANTS OF THE dSOD1 GENE IN DROSOPHILA AND METHODS OF MAKING AND USING” (priority 2014, published 2016) can be followed below.

Common to all, as to type: in vivo, Drosophila melanogaster
Assay [1] relates to dSod1-G85R mutants. The assay is described as follows: Spontaneous motor neuron activity recorded from larval muscles with motor circuit intact. The following applies: expression of Gbb. The source says: Consistent with the reduced motility observed in dSod1-G85R late 3rd instar larvae, there was a concordant reduction in the spontaneous activity of MNs when recorded from larval muscles in preparations with the motor circuit intact (brain and ventral nerve cord (VNC) remain attached to the body wall muscles). […] These analyses, coupled with studies on muscle structure can provide a well-defined depiction of disease progression. While ALS paralysis results from a dramatic degeneration of MNs and atrophied muscles, it is unclear when and where the decline in function originates. It could begin in a specific set of cells or the loss of function could be a systemic effect. This can be addressed using the Drosophila model system disclosed herein. For example, directed expression of channel-rhodopsin (ChR2) to specific cells or neurons can be done, followed by excitation of those cells with a flash of light and recording of the response in the circuit output of a particular larval muscle. Driving UAS-ChR2 within different neurons (OK371Gal4 in motorneurons, ChaGal4 in cholinergic neurons, specific neural Gal4 lines from Janeila Farm collection) (55) can be done to address the integrity of the neural circuit and interrogate the function of individual neurons.
Gbb, the Drosophila orthologue of vertebrate BMPs 5, 6, 7, acted as a retrograde signal at the NMJ (56). […]

Assay [2] deals with dSod1-G85R and dSod1-H71Y mutant larvae. The assay can be described thus: Larval locomotor (motility) defect in dSod1 mutant larvae. The following applies: expression of Gbb. The source says:
(§1) The genetically accurate model of ALS disclosed herein, can be used to elucidate not only the behavioral and electrophysiological changes, but also the cellular and molecular basis of disease progression. ALS-associated loss in motor neuron function and subsequent cell death has been attributed to defects in a number of processes from protein aggregation, increases is axonal membrane excitability, mitochondrial dysfunction, to changes in RNA metabolism and general metabolic homeostasis (49-55). This model system was used to explore the involvement of these processes in disease progression. […] The time of death varied between the different dSod1 mutations with <0.1% dSod1-G85R adults emerging from the pupal case (a feat requiring considerable muscle strength) to 33% emergence by the less severe dSod1-H71Y followed by death within 7-10 days of adulthood. […] Characterization of this progressive loss in motor function in detail during can be performed using immunohistochemical markers of muscle, as well as Drosophila lines expressing GFP-tagged muscle proteins (Mhc-mCD8-GFP) that allow visualization of muscles in living animals. Examination of the innervation of the muscles in controls and mutants is done by concomitant labeling of the MNs (CD8-RFP driven in MNs). […]

Assay [3] deals with G85R/H71Y. The assay is described as follows: Adult eclosion (emergence from the pupal case). The conditions noted are these: G85R/H71Y flies; expression of Gbb; 15% without Gbb.
Description: as §1

B1: Gbb: the Drosophila orthologue of vertebrate BMPs 5, 6, 7; expressed genetically in the flies, not dosed (protein, UniProt P27091 336-455, looked up)
Protein 60A: SVSPNNVPLLEPMESTRSCQMQTLYIDFKDLGWHDWIIAPEGYGAFYCSGECNFPLNAHMNATNHAIVQTLVHLLEPKKVPKPCCAPTRLGALPVLYHLNDENVNLKKYRNMIVKSCGCH
As to B1, the “spontaneous MN activity” value in assay [1] is “restored normal spontaneous MN activity”. Further, the locomotor defect result in assay [2] (dSod1-G85R mutant larvae) and in assay [2] (dSod1-H71Y mutant larvae) was “rescued” in each case. The molecule further registered an eclosion in assay [3] of 45%.
